In the supplement of paper PMC9170038:

What was measured:
[1] = tested on: MS2 coat protein; experiment: apparent KD of MS2 coat protein, switch ON state; designed switch direction (-1 OFF switch, 1 ON switch): -1; higher = weaker reporter binding; details: FMN input: 0 or 200 uM; Eterna round: R93 (includes R88 designs)
Summary of the method: (§1)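 With or without constant ligand, designed RNA switches in 100 mM Tris-HCl pH 7.5, 80 mM KCl and 4 mM MgCl2 were titrated with SNAP-549-labelled MS2 coat protein. Concentrations went up in twofold steps from 0.7 or 1.5 nM to 3 µM. The switches had been transcribed on-chip from Illumina sequencing clusters, and apparent KD is the per-design median of normalised cluster binding-curve fits.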

[2] = tested on: MS2 coat protein; experiment: apparent KD of MS2 coat protein, switch OFF state (with FMN for OFF switches, without FMN for ON switches); designed switch direction (-1 OFF switch, 1 ON switch): -1; higher = weaker reporter binding; details: FMN input: 0 or 200 uM; Eterna round: R93 (includes R88 designs)
Summary of the method: as §1

AAAAAACAUGAGGAUCACCCAUGUUAGGAUAUCCUGCAGAAAAAAAAAAAAAACUGCAGGAGAAGGAGCAAGGA [Banishment 3 - Jieux - Exclusion 1]
apparent KD of MS2 coat protein [1]: 0.0258 µM | apparent KD of MS2 coat protein [2]: 0.0445 µM

GAAAAGUCAGGAUAUACAGAUAAAAAAACGAAAAAAAAUCUGUAGAAGGGACAUGAGGAUCACCCAUGUAAAAG [Mat - Exclusion 4 - Mayanna - D101]
apparent KD of MS2 coat protein [1]: 0.0473 µM | apparent KD of MS2 coat protein [2]: 0.0332 µM

AUGUAGGUAGGAUAUGCAUAGAUACAGAUUCAUGUGGAACUACAUGAGGAUCACCCAUGUAGAAGGACCUAAAA [Mat - Same state - Mayanna Mod - D126]
apparent KD of MS2 coat protein [1]: 0.0202 µM | apparent KD of MS2 coat protein [2]: 0.03 µM

GAAAAACAUGAGGAUCACCCAUGUGAGGAUAUACGAAAGUAGAAGGCACUAAAAGAAAAGAGAAGGAGAAAAGA [Meechl Ex1 R2 m2]
apparent KD of MS2 coat protein [1]: 0.0199 µM | apparent KD of MS2 coat protein [2]: 0.0388 µM

AGCUAGUGAGGAUAUACGAAUCUGUCAAAAGACGGAAGGGAACAUGAGGAUCACCCAUGUAGAAGGCACUAGCA [Web Mod 74% 6]
apparent KD of MS2 coat protein [1]: 0.0319 µM | apparent KD of MS2 coat protein [2]: 0.0232 µM

AGAAAGUCAGGAUAUACGAAUAAGAAAAAAGACGAGAACGGACAUGAGGAUCACCCAUGUAGAAGGGACAAGAA [Diamond 15]
apparent KD of MS2 coat protein [1]: 0.0912 µM | apparent KD of MS2 coat protein [2]: 0.0406 µM

AAGAAGUCAGGAUAUGCUGCUCGUCACGAAAGUGAUGAGUAGCAGAAGGGACAUGAGGAUCACCCAUGUAAAGA [Exclusion 4.1 (Exclusion4-cac2 - the real original)]
apparent KD of MS2 coat protein [1]: 0.0552 µM | apparent KD of MS2 coat protein [2]: 0.0666 µM

CUCUAGUUAGGAUAUGCAAGAAAAGAAGAGAAAGAAAAGAAGCAGAAGGAACAUGAGGAUCACCCAUGUAAGAA [EteRNA is fun!]
apparent KD of MS2 coat protein [1]: 0.0227 µM | apparent KD of MS2 coat protein [2]: 0.0204 µM

AAGUACUCAGGAUAUACAUGAGGAUCACCCAUGUGAUAAAAGCGUAAAAAACGCACAUGUAGAAGGGAGUACAA [JL In thr Red Again 2]
apparent KD of MS2 coat protein [1]: 0.14 µM | apparent KD of MS2 coat protein [2]: 0.084 µM

GCUUGUGAAGGAUAUACAUGAGGAUCACCCAUGUGAGAGAAAAAAGUGAGAAAGAAAAGUAGAAGGUCGUGAGG [salish99-ex3-79]
apparent KD of MS2 coat protein [1]: 0.0361 µM | apparent KD of MS2 coat protein [2]: 0.037 µM

AAAAAGCAAGGAUAUACAUGAGGAUCACCCAUGUGAAAAAAAACAAUAAGAAGAAAAAGUAGAAGGUGCAAAAA [Ex 3 Tesla 1]
apparent KD of MS2 coat protein [1]: 0.024 µM | apparent KD of MS2 coat protein [2]: 0.0188 µM

AAAACUGGAGGAUAUACGUACAUGUCAAAAGACGUGAAGGGACAUGAGGAUCACCCAUGUAGAAGGCUAGAAAA [JL Stem Breaker 8]
apparent KD of MS2 coat protein [1]: 0.0742 µM | apparent KD of MS2 coat protein [2]: 0.0286 µM

AACAGUACAGGAUAUACAUGAGGAUCACCCAUGUGAGAGGAAUAAAACAAAAAUAAAAGUAGAAGGGUACUGGA [Ruby 45]
apparent KD of MS2 coat protein [1]: 0.035 µM | apparent KD of MS2 coat protein [2]: 0.106 µM

AGGUAGUCAGGAUAUGCGUGAAGAAUAAAACAAAUAACAACGCAGAAGGGACAUGAGGAUCACCCAUGUUAAGA [May 48]
apparent KD of MS2 coat protein [1]: 0.0361 µM | apparent KD of MS2 coat protein [2]: 0.0317 µM

AAGAACGAAGGAUAUACAUGAGGAUCACCCAUGUAAAAGAAAGAAAAGGGAAAGAAAAGUAGAAGGUCGAAGAA [Banenre Merenptah]
apparent KD of MS2 coat protein [1]: 0.0215 µM | apparent KD of MS2 coat protein [2]: 0.0331 µM

GAAAAGGAAGGAUAUACAAAGGGACCUUAUAAAAGAAGAAGACAUGAGGAUCACCCAUGUAGAAGGUCCAGAUA [Diusanatra]
apparent KD of MS2 coat protein [1]: 0.0195 µM | apparent KD of MS2 coat protein [2]: 0.0196 µM

AAAAAGUCAGGAUAUGUACGAAAAAAUAAAAAAAUAAAAGUACAGAAGGGACAUGAGGAUCACCCAUGUCAGGG [EX4 393: Minimal 5]
apparent KD of MS2 coat protein [1]: 0.0675 µM | apparent KD of MS2 coat protein [2]: 0.118 µM

GUGUACAGAGGAUAUAUAUGAGCUAGGAAACUAGCAAGAUCACAUGAGGAUCACCCAUGUAGAAGGCUGUACAC [Ex2: 735]
apparent KD of MS2 coat protein [1]: 0.108 µM | apparent KD of MS2 coat protein [2]: 0.796 µM

AAAUAGCAAGGAUAUACAUGAGGAUCACCCAUGUGACCCAGGUAUGGCAUAGAAUAGAGUAGAAGGUGCAAAUA [Mod 4 of Ex 3 Tesla 8 - Jieux - Exclusion 3]
apparent KD of MS2 coat protein [1]: 0.132 µM | apparent KD of MS2 coat protein [2]: 0.149 µM

AGGAAACAUGAGGAUCACCCAUGUGAGGAUAUACAAAAGAAAAGAAAAGAAAGAAGAAGUAGAAGGUACAAGAA [Djedkare Isesi]
apparent KD of MS2 coat protein [1]: 0.0217 µM | apparent KD of MS2 coat protein [2]: 0.0247 µM

CUUAUGUGAGGAUAUGGUGUUGGCCACAGGGAAAAGAUCCUCCAGAAGGCACAUGAGGAUCACCCAUGUAGUGA [Jolly's Folly 29 - Jieux - Exclusion 4]
apparent KD of MS2 coat protein [1]: 0.069 µM | apparent KD of MS2 coat protein [2]: 0.16 µM

AAAAAACAUGAGGAUCACCCAUGUGAGGAUAUGCAAAACCCAAAUAAAAAGAGAAAAAGCAGAAGGCACAAAAA [wbt round 1 mod 2]
apparent KD of MS2 coat protein [1]: 0.0235 µM | apparent KD of MS2 coat protein [2]: 0.0303 µM

AGUUGGCGAGGAUAUACAUGAGGAUCACCCAUGUGAGAGAAAUAAGUGAGAAAGAAAAGUAGAAGGCGCUAACA [JL Lego Mod 18]
apparent KD of MS2 coat protein [1]: 0.0535 µM | apparent KD of MS2 coat protein [2]: 0.164 µM

AAAAAACAUGAGGAUCACCCAUGUAAGGAUAUGUGAAAAAAAAAAUAAAAAAAAAAAAACAGAAGGUACAAAAA [LROPPY Exclusion 1 - v02_deltaG=3.34]
apparent KD of MS2 coat protein [1]: 0.0452 µM | apparent KD of MS2 coat protein [2]: 0.0477 µM

AAGAAUCGAGGAUAUACAAGAAAGAAAGAAAAGAAAAGAAAACAUGAGGAUCACCCAUGUAGAAGGCGAUAGAA [EteRNA is fun!]
apparent KD of MS2 coat protein [1]: 0.022 µM | apparent KD of MS2 coat protein [2]: 0.0246 µM

AGCUAGUCAGGAUAUACGAACAUGUCAGAAGACGUGAAGGGACAUGAGGAUCACCCAUGUAGAAGGGACUAGCA [74%, Web mod - With 1 more G's]
apparent KD of MS2 coat protein [1]: 0.0319 µM | apparent KD of MS2 coat protein [2]: 0.102 µM

AAAAAACAUGAGGAUCACCCAUGUCAGGAUAUUCGAAAAAAAAAAAAAAAAAAAAAAAGGAGAAGGGACGAAAA [DR Excl. 1]
apparent KD of MS2 coat protein [1]: 0.0434 µM | apparent KD of MS2 coat protein [2]: 0.0568 µM

ACCAAUGCAGGAUAUACAUGAGGAUCACCCAUGUAUAACCUACAUAGAUGAUAAAAAUGUAGAAGGGCAUUGGA [EX3 232: Super Stable 32]
apparent KD of MS2 coat protein [1]: 0.016 µM | apparent KD of MS2 coat protein [2]: 0.0203 µM

AAAAAGUUAGGAUAUACAUGAGGAUCACCCAUGUGCACAUAUGGAGAAUAUGGUGGUAGUAGAAGGGACAAAAA [EX2 Malc#17]
apparent KD of MS2 coat protein [1]: 0.0339 µM | apparent KD of MS2 coat protein [2]: 0.0697 µM

GGGAAACAUGAGGAUCACCCAUGUGAGGAUAUGCUAUGGAAAAUAAAAAUAAAACAUAGCAGAAGGCAUAAAAA [Denovo 11]
apparent KD of MS2 coat protein [1]: 0.0306 µM | apparent KD of MS2 coat protein [2]: 0.037 µM

GUAAACCUAGGAUAUACAUGAGGAUCACCCAUGUAAAAAUUAAUAAAAAGAAAAACAAGUAGAAGGAGGUAGAU [JR_Exc003_Sub1225]
apparent KD of MS2 coat protein [1]: 0.0196 µM | apparent KD of MS2 coat protein [2]: 0.0208 µM

AAAAAACAUGAGGAUCACCCAUGUAAGGAUAUGCUCGUCAGUGCGAAAGCACAGAUGAGCAGAAGGUACAAAAA [66%, Wbt, 43]
apparent KD of MS2 coat protein [1]: 0.0248 µM | apparent KD of MS2 coat protein [2]: 0.039 µM

GGUUGGCGAGGAUAUACAUGAGGAUCACCCAUGUGAGAGAAAAAAGUGAGAAAGAAACGUAGAAGGCGCUGACG [salish99-ex3-30]
apparent KD of MS2 coat protein [1]: 0.0884 µM | apparent KD of MS2 coat protein [2]: 0.824 µM

AAGAAGUGAGGAUAUCGUGCUCGUCACAAAAGUGAUGAGUACGAGAAGGCACAUGAGGAUCACCCAUGUAAAGA [Opal 36]
apparent KD of MS2 coat protein [1]: 0.0401 µM | apparent KD of MS2 coat protein [2]: 0.0526 µM

AAGAUCAGAGGAUAUACAUAAGGUGAUGAAAACAUCGCCAAACAUGAGGAUCACCCAUGUAGAAGGCUGAUCAA [JL EX2 1]
apparent KD of MS2 coat protein [1]: 0.118 µM | apparent KD of MS2 coat protein [2]: 0.231 µM

GAAAAGCGAGGAUAUACAGAAAAAAAAACAAAAAAAGAAAAACAUGAGGAUCACCCAUGUAGAAGGCGCAAAAA [V1]
apparent KD of MS2 coat protein [1]: 0.0259 µM | apparent KD of MS2 coat protein [2]: 0.0494 µM

GAAACACAUGAGGAUCACCCAUGUCAGGAUAUGUAGAUAAAAAGAAAAUAAAAUAAAAACAGAAGGGACAAAAG [Mat - Same state - Mayanna Mod - D103]
apparent KD of MS2 coat protein [1]: 0.0644 µM | apparent KD of MS2 coat protein [2]: 0.0763 µM

AACAGGUCAGGAUAUGUGGAAAAAAUAAAAAAAAUAAAAACACAGAAGGGACAUGAGGAUCACCCAUGUAAAAA [May 20]
apparent KD of MS2 coat protein [1]: 0.0595 µM | apparent KD of MS2 coat protein [2]: 0.0756 µM

CAUAGGCGAGGAUAUACAUGAGGAUCACCCAUGUAAGGAAACCUGGCAGACUCAGAAUGUAGAAGGCGCACUGA [Ex3_Neo]
apparent KD of MS2 coat protein [1]: 0.0171 µM | apparent KD of MS2 coat protein [2]: 0.0325 µM

AACAGUACAGGAUAUACAUGAGGAUCACCCAUGUGAGCAUUAAAAGGCGUACCUCAAAGUAGAAGGGUACUGGA [JL Maslow Revisted mod 23]
apparent KD of MS2 coat protein [1]: 0.107 µM | apparent KD of MS2 coat protein [2]: 0.0189 µM

ACGUGACAUGAGGAUCACCCAUGUUAGGAUAUGCGAAUUCAAAAUCAGCUAACGCUGAGCAGAAGGAACAUGGU [Esriange]
apparent KD of MS2 coat protein [1]: 0.0362 µM | apparent KD of MS2 coat protein [2]: 0.0889 µM

AAGGGACAUGAGGAUCACCCAUGUGAGGAUAUGAUGCGAAUAAAGAAAUAAUAAAGCAUCAGAAGGCACACCAA [Mat - Exclusion 1 - Eli mod - D67]
apparent KD of MS2 coat protein [1]: 0.0824 µM | apparent KD of MS2 coat protein [2]: 0.0885 µM

AAAAAGGCAGGAUAUACAUGAGGAUCACCCAUGUAAAGAAAGAAAGAGGUGAAAGAAAGUAGAAGGGCCAAAAA [Ex3 sub 2]
apparent KD of MS2 coat protein [1]: 0.0929 µM | apparent KD of MS2 coat protein [2]: 0.072 µM

AAGAAGGUAGGAUAUACUAGGGCAACUAAUGCAAAGAUAGGACAUGAGGAUCACCCAUGUAGAAGGGCCAGAAA [JR_Exc002_Sub403]
apparent KD of MS2 coat protein [1]: 0.048 µM | apparent KD of MS2 coat protein [2]: 0.0596 µM

AAAACGCUAGGAUAUACGAAAAAAAAGGGAGAAAAAAAGGGACAUGAGGAUCACCCAUGUAGAAGGAGCAAAAA [Diamond 88]
apparent KD of MS2 coat protein [1]: 0.0385 µM | apparent KD of MS2 coat protein [2]: 0.105 µM
